Assay [1] deals with GPC3ΔGPI-FLAG重组蛋白 (Homo sapiens (Human)) (UniProt P51654). The experiment in a line: ELISA on coated GPC3ΔGPI-FLAG after serum incubation of the antibody. A general note: In an ELISA, binding on a coated surface is turned into a signal by an enzyme label.
Assay [2] addresses mCherry-GPC3 (stably expressed on HEK293T cells) (UniProt P51654). The experiment in a line: immunofluorescence colocalisation on HEK293T cells expressing mCherry-GPC3, confocal microscopy.

In assay [1], HN3-hFc融合抗体 (Fc fusion) had a decrease of antigen binding (ELISA OD450) after 72 h at 37°C in FBS against 0 h of 55.5%.

B1: 纳米抗体G64 (G64-His) (VHH, not shown: small tags and cut ends)
VHH: QVQLVESGGALVQPGGSLRLSCAASGRGADTLSLRWYRQAPGKEREWVCGISWLMTTYSYEDSVKGRFTCSRDDARNTVYLQLNSLKPEDTAVYYCASRPRFLEEQLQVSSYWGQGTQVTVSS
On to B1, for which the 皮尔森相关系数 (mCherry and Alexa Fluor 488 signals) in assay [2] stood at 0.803. In assay [1], this molecule had a decrease of antigen binding (ELISA OD450) after 72 h at 37°C in FBS against 0 h of 0.6%.

(Values after patent CN111732659A.)
